Data: patent US20220403025A1
Changes are numbered by the printed parent chain.

B1: 1245_P01_E07 (scFv) (scFv)
scFv: QVQLVESGGGLVKPGGSLRLSCAASGFTFSDYYMSWIRQAPGKGLEWVSYISSSGSTIYYADSVKGRFTISRDNAKNSLYLQMNSLRAEDTAVYYCARVDYADAFDIWGQGTLVTVSSGGGGSGGGGSGGGASDIQMTQSPSSLSASVGDRVTIACRAGQSIGTYLNWYQQKPGKAPKLLIYVASSLQSGVPSRFSGSGSGTEFTLTISSLQPEDFATYYCQQSYSTLLTFGRGTKVEIK
B2: 1141_P01_E01 (scFv) (scFv)
scFv: QVQLVQSGAEVKKPGESLKISCKGSGYSFTSYWIGWVRQMPGKGLEWMGIIYPGDSDTRYSPSFQGQVTISADKSISTAYLQWSSLKASDTAMYYCARHQVDTRTADYWGQGTLVTVSSGGGGSGGGGSGGGASQSALTQPASVSGSPGQSVTISCTGTRSDVGGYNYVSWYQHHPGKAPKLMIYEVSNRPSGVSNRFSGSKSGNTASLTISGLQAEDEADYYCSSYTSTSTLVFGGGTKLTVL
B3: 1251_P02_G10 (scFv) (scFv)
scFv: EVQLVESGGGLVQPGGSLRLSCAASGFTFSDYYMSWIRQAPGKGLEWVSYISSSGSTIYYADSVKGRFTISRDNAKNSLYLQMNSLRAEDTAVYYCARHSWNDAFDIWGRGTLVTVSSGGGGSGGGGSGGGASDIQMTQSPSSLSASVGDRVTITCRASQSISSHLNWYQQKPGKAPKLLIYAASSLQSGVPSRFSASGSGTDFTLTISSLQPEDFATYYCQQSYSTLLTFGGGTKVEIK
B4: 1245_P02_G04 (scFv) (scFv)
scFv: QVQLQQSGPGLVKPSQTLSLTCAISGDSVSSKSAAWNWIRQSPSRGLEWLGRTYYRSKWSTDYAASVKSRITINPDTSKNQLSLQLNSVTPEDTAVYYCARTWSGYVDVWGQGTLVTVSSGGGGSGGGGSGGGASDIQMTQSPPALSASVGDRVTITCRASQDINDWLAWYQHKPGKAPKLLIYDASSLESGVPSRFSGSGSGTEFTLTISSLQPDDFATYYCQQSYSTPQVTFGQGTRLEIK
B5: 1139_P01_E04 (scFv) (scFv)
scFv: QVQLQQSGPGLVKPSQTLSLTCAISGDSVSSNSAAWNWIRQSPSRGLEWLGRTYYRSKWYNDYAVSVRSRITINPDTSKNQFSLQLNSVTPEDTAVYYCARSWNDAFDIWGQGTTVTVSSGGGGSGGGGSGGGASDIVMTQSPSTLSASIGDRVTITCRAGQSISTWLAWYQQKPGKAPKLLIYDASSLESGVPLRFSGSGSGTDFTLTISSLQPEDFATYYCQQSYSTPLTFGGGTKVEIK
B6: 1252_P01_C08 (scFv) (scFv)
scFv: EVQLLESGGGLVQPGRSLRLSCAASGFTVSSNYMSWVRQAPGKGLEWVSVIYSGGSTYYADSVKGRFTISRDNSKNTLYLQMNSLRAEDTAVYYCASPIELGAFDIWGQGTLVTVSSGGGGSGGGGSGGGASSYELTQPPSVSVAPGKTARITCGGNNIGSQSVHWYQQKPGQAPMLVIYYDSDRPSGIPERFSGSNSGNTATLTISRVEAGDEADYYCQVWDSSSDHVVFGGGTKLTVL
B7: 1251_P02_C05 (scFv) (scFv)
scFv: EVQLLESGGGLVQPGGSLRLSCAASGFTFSSYAMSWVRQAPGKGLEWVSAISGGGGTTYSSDSVKGRFTISRDNSKNTLYLQMNSLRAEDTAVYYCARDSGVAFDIWGQGTLVTVSSGGGGSGGGGSGGGASDIQMTQSPSFLSASVGDRVTITCRASQNIRTWLAWYQQKPGRAPKLLIYDASSLESGVPSRFSGSGSGTDFTLTISSLQPEDFATYYCQQFKRYPPTFGLGTKVEIK
B8: 1245_P01_G09 (scFv) (scFv)
scFv: QVQLQQSGPGLVKPSQTLSLTCAISGDSVSSNSAAWNWIRQSPSRGLEWLGRTYYGSKWYNEYALSVKSRIIINPDTSKNQFSLQLNSVTPEDTAVYYCARDYYYSMDVWGQGTLVTVSSGGGGSGGGGSGGGASDIVMTQSPSTLSASIGDRVTITCRAGQSISTWLAWYQQKPGKAPKLLIYDASSLESGVPLRFSGSGSGTEFTLAISSLQPDDFATYYCQQSYSTPVTFGQGTKVEIK
B9: 1245_P02_F07 (scFv) (scFv)
scFv: QVQLQQSGPGLVKPSQTLSLTCVISGDSVSSNSAAWNWIRQSPSRGLEWLGRTYYRSKWYNDYAVSVKSRITINPDTSKNQFSLQLNSVTPEDTAVYYCARDYYYSMDVWGQGTMVTVSSGGGGSGGGGSGGGASDIQMTQSPSTLSASVGDRVTITCRASQSISSWLAWYQQKPGKAPKLLIYDASSLESGVPLRFSGSGSGTEFTLTISSLQPDDFATYYCQQSHSHPPTFGPGTKVDIK
B10: 1245_P02_G04 (IgG1, made in HEK) (antibody, V domains shown)
VH: QVQLQQSGPGLVKPSQTLSLTCAISGDSVSSKSAAWNWIRQSPSRGLEWLGRTYYRSKWSTDYAASVKSRITINPDTSKNQLSLQLNSVTPEDTAVYYCARTWSGYVDVWGQGTLVTVSS
VL: DIQMTQSPPALSASVGDRVTITCRASQDINDWLAWYQHKPGKAPKLLIYDASSLESGVPSRFSGSGSGTEFTLTISSLQPDDFATYYCQQSYSTPQVTFGQGTRLEIK
B11: AD3 (variant G04, made in CHO) (antibody, V domains shown)
VH: B10 VH with Q1E
VL: B10 VL
B12: AD3gly (defucosylated AD3 made in engineered CHO) (antibody, V domains shown)
VH: B10 VH with Q1E
VL: B10 VL
B13: AD4 (hinge modified AD3, made in CHO) (antibody, V domains shown)
VH: B10 VH with Q1E
VL: B10 VL
B14: 1251_P02_G10 (IgG1) (antibody, V domains shown)
VH: EVQLVESGGGLVQPGGSLRLSCAASGFTFSDYYMSWIRQAPGKGLEWVSYISSSGSTIYYADSVKGRFTISRDNAKNSLYLQMNSLRAEDTAVYYCARHSWNDAFDIWGRGTLVTVSS
VL: DIQMTQSPSSLSASVGDRVTITCRASQSISSHLNWYQQKPGKAPKLLIYAASSLQSGVPSRFSASGSGTDFTLTISSLQPEDFATYYCQQSYSTLLTFGGGTKVEIKR

biological target: L1 (DV1-GV4) antigen: soluble heterodimeric γδ TCR in leucine zipper format (TRDV1/TRGV4) (human); assay: DELFIA affinity ranking with 100 nM biotinylated L1
Sequence (main, as listed by the source): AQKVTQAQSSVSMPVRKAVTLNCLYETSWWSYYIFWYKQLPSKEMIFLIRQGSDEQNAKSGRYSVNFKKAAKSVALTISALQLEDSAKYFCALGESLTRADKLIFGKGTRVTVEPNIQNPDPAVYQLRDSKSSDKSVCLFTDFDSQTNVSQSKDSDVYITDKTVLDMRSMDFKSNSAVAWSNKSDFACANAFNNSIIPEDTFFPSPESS

Binder	DELFIA signal, 100 nM L1
B1	163000
B2	137000
B3	17100
B4	5900
B5	23800
B6	1980
B7	65300
B8	18400
B9	10400

biological target: L1 (DV1-GV4) antigen: soluble heterodimeric γδ TCR in leucine zipper format (TRDV1/TRGV4) (human); assay: ELISA (DELFIA, time-resolved fluorometry) on antigen L1, titration of the mAb

Binder	EC50 (read off the curve) [µg/mL]
B10	0.07
B11	0.07
B12	0.07
B13	0.07

biological target: L1 (DV1-GV4) antigen: soluble heterodimeric γδ TCR in leucine zipper format (TRDV1/TRGV4) (human); assay: SPR (MASS-2), IgG captured via protein G, L1 as analyte, steady-state 1:1 fit

Binder	Kd [nM]
B14	829

biological target: Vδ1 γδ T cell receptor on skin-derived γδ T cells (human); assay: cell-based or functional assay

Binder	TCR downregulation (EC50 µg/ml - 3 donors) [µg/mL]
B14	0.849
